# Measurements taken from patent publication US20200131489, “ENGINEERED MEGANUCLEASES SPECIFIC FOR RECOGNITION SEQUENCES IN THE PCSK9 GENE” (Precision BioSciences, Inc., published 2020).
# Substitutions are numbered along the chain they refer to.
# T1: PCS 7-8L.262 (synthetic (I-CreI derived, …))
# T1 chain: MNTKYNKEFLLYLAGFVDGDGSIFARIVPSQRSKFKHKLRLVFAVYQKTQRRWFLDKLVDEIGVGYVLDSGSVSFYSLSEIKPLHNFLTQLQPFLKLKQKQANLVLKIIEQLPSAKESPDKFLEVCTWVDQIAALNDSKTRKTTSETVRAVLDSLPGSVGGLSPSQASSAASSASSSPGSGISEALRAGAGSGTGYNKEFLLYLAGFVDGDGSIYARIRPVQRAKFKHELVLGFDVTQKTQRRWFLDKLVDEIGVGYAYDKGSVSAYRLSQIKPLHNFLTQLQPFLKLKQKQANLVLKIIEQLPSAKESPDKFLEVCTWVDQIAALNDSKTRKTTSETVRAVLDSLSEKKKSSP
# T2: PCS 7-8L.261 (synthetic (I-CreI derived, …))
# T2 chain: T1 chain with V231R, A258V
# T3: PCS 7-8L.209 (synthetic (I-CreI derived, …))
# T3 chain: T1 chain with V28K, R40L, R219K, A258V
# T4: PCS 7-8L.268 (synthetic (I-CreI derived, …))
# T4 chain: T1 chain with V28K, R40N, R219K, A258V
# T5: PCS 7-8L.204 (synthetic (I-CreI derived, …))
# T5 chain: T1 chain with R219K, V231R, A258V
# B1: PCS 7-8 recognition sequence (dsDNA)
# DNA 1: TGGACCTCTTTGCCCCAGGGGA
# DNA 2: TCCCCTGGGGCAAAGAGGTCCA
# Assays:
# Assay in all cases: cell_activity; HEK293 mRNA electroporation, 48 h, mock 0.40%
# Conditions in all cases: tags: N-terminal SV40 NLS
# [1] = target: T1, PCS 7-8L.262
# Protocol: (§1) In order to directly observe insertions or deletions at the intended PCS 7-8 meganuclease target site, a deep sequencing protocol was used. 2e⁶ HEK 293 cells were electroporated with 5 ug of PCS 7-8 meganuclease mRNA using a BioRad Gene Pulser Xcell according to the manufacturer's instructions. A mock electroporation was also performed with no mRNA. At 48 hours post-transfection, genomic DNA (gDNA) was harvested from cells. The PCS 7-8 locus was amplified by PCR using primers that flank the PCS 7-8 recognition sequence. This amplicon was run on an agarose gel for visual confirmation, extracted using a Macherey-Nagel Nucleospin Gel and PCR Clean-up kit, and sequencing libraries were prepared using the NEBNext Ultra II DNA Library Kit for Illumina from New England Biolabs. The paired-end sequencing libraries were read on an Illumina Miseq DNA sequencer. Sequencing data was analyzed using custom scripts. Reads with start or end points not within 25 bp of the full-length amplicon were removed. The percent of reads with indels was calculated by dividing the number of full-length reads having an indel that incorporated at least one of the middle 8 bp of the recognition sequence by the total number of full-length reads.
# [2] = target: T2, PCS 7-8L.261
# Protocol: as §1
# [3] = target: T3, PCS 7-8L.209
# Protocol: as §1
# [4] = target: T4, PCS 7-8L.268
# Protocol: as §1
# [5] = target: T5, PCS 7-8L.204
# Protocol: as §1
binder,measurement,setting,value
B1,activity,[1],53.5 % indels
same,activity,[2],55.4 % indels
same,activity,[3],53.2 % indels
same,activity,[4],52.5 % indels
same,activity,[5],58.4 % indels
